Assay results from IntAct's records for PubMed 11842245.

B1: Protein Rep68 (Adeno-associated virus 2 (isolate Srivastava/1982)), P03132 (parent)
chain: MPGFYEIVIKVPSDLDGHLPGISDSFVNWVAEKEWELPPDSDMDLNLIEQAPLTVAEKLQRDFLTEWRRVSKAPEALFFVQFEKGESYFHMHVLVETTGVKSMVLGRFLSQIREKLIQRIYRGIEPTLPNWFAVTKTRNGAGGGNKVVDECYIPNYLLPKTQPELQWAWTNMEQYLSACLNLTERKRLVAQHLTHVSQTQEQNKENQNPNSDAPVIRSKTSARYMELVGWLVDKGITSEKQWIQEDQASYISFNAASNSRSQIKAALDNAGKIMSLTKTAPDYLVGQQPVEDISSNRIYKILELNGYDPQYAASVFLGWATKKFGKRNTIWLFGPATTGKTNIAEAIAHTVPFYGCVNWTNENFPFNDCVDKMVIWWEEGKMTAKVVESAKAILGGSKVRVDQKCKSSAQIDPTPVIVTSNTNMCAVIDGNSTTFEHQQPLQDRMFKFELTRRLDHDFGKVTKQEVKDFFRWAKDHVVEVEHEFYVKKGGAKKRPAPSDADISEPKRVRESVAQPSTSDAEASINYADRLARGHSL
partner: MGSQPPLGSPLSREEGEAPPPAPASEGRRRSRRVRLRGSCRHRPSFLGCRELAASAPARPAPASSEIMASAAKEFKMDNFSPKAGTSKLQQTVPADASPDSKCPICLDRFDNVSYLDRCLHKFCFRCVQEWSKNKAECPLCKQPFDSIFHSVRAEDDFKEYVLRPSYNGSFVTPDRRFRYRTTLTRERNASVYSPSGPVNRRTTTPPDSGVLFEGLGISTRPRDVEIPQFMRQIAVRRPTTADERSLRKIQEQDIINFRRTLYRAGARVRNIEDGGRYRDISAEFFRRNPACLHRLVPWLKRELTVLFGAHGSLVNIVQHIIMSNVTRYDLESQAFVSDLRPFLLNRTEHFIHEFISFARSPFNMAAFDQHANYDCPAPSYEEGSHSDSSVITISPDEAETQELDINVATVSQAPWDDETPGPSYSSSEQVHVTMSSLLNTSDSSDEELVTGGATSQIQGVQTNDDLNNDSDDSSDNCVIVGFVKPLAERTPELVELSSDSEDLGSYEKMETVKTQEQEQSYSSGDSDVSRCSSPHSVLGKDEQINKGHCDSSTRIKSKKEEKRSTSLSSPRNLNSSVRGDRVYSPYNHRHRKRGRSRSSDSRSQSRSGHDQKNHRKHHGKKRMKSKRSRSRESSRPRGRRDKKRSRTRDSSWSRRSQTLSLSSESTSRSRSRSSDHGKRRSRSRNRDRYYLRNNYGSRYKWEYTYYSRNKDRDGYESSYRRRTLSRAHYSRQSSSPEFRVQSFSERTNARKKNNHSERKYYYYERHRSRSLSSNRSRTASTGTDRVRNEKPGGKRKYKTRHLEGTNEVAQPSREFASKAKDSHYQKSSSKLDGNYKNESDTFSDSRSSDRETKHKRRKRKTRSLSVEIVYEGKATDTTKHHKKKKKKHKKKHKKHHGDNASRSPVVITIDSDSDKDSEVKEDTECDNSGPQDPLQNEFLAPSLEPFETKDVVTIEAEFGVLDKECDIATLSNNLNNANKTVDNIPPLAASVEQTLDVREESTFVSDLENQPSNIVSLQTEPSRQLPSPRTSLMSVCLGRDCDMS

Variants of: B1
Conditions: with toprs_human TOPORS

Row | Variant | effect of a mutation on the interaction
1 | K340H | increasing interaction
